Consider three sequences from article PMC3968096.

pKd: −log10 of the molar value.

The test system of series [1] is T1, VEGF165 (soluble) (human), P15692-4.
T1 sequence: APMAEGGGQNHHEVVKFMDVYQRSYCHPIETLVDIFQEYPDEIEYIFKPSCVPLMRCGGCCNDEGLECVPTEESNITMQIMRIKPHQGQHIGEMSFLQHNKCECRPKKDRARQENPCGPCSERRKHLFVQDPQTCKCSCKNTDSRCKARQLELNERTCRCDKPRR
Nature of the series: F-EMSA. The note with it: 1 mM Mg2+, 10 mM HEPES pH 7.9, 125 mM NaCl, 25 mM KCl, 1 mM MgCl2, F-EMSA at room temperature for 2 h, 5% PAGE at 4 C, flow cytometry in the same buffer.

The next series has as its target PDGF-A (human) (UniProt P04085). Nature of the series: flow cytometry, yeast display. As to conditions: 10 mM HEPES pH 7.9, 125 mM NaCl, 25 mM KCl, 1 mM MgCl2; F-EMSA at room temperature for 2 h, 5% PAGE at 4 C; flow cytometry in the same buffer.

“AAAGCCCACTGCATAGAGGCCGCTCAACATGCGAGCCGGT [hVap2_T2160]” had a pKd in series [1] (same value is also printed for SL12) of 6.97.
As to “TAGCCCACTGCATAGAGGTAGCCACGTATGTGGGTGTTACCCATTCGTAGCTACCGGTGA [hVap1 full-length (100 nt)]”, the pKd in series [1] is 8.85.
“CAGAGCAGGGCGCCGTGTCGCATAGTGTTGTCACTCCCCTGGAGGTCCATGCGAAATATG [hPAap1]” gave a negative-log Kd (pKd) with PDGF-A (human) of 5.40.
